Biological target: human properdin (human, UniProt P27918 28-469)
Test: cell-based or functional assay

human properdin, sequence (P27918 28-469 limits assumed): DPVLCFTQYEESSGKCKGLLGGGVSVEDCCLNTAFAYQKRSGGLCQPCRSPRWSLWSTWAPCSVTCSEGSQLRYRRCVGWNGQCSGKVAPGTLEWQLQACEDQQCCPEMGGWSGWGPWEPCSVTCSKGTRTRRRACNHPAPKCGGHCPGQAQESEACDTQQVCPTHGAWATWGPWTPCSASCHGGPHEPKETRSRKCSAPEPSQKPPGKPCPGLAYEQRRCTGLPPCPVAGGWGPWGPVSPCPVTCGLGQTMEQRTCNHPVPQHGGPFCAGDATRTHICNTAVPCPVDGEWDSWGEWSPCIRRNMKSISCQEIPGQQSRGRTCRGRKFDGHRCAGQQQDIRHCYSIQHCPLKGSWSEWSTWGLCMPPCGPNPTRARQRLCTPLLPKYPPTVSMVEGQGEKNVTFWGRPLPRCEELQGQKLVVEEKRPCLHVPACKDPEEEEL

B1: anti-properdin monoclonal antibody IgG (14G11) (antibody, V domains shown)
VH: QVTLKESGPGILQPSQTLSLTCSFSGFSLSTSGMGVGWIRQPSGKGLEWLAHIWWDDVKSYNPALKSRLTISKDTSSSQVFLRIASVDTADTATYYCARIGDGYYSFDYWGQGTTLTVSS
VL: DIVMTQSHKFMSTSVGDRVSISCKASQDVSDAVAWFQQKPGQSPKLLIYSPSYRYTGVPDRFTGSGSGTDFTFTISSVQAEDLAVYYCQQHYSTPWTFGGGTKLEIKR
IC50 of inhibition of AP dependent hemolysis of rRBC in 10% normal human serum: 10 nM

— patent EP2544694B1 (Novelmed Therapeutics, Inc., dated 2018)
